B1: Serine/threonine-protein kinase VRK1 (Homo sapiens), Q99986 (parent)
chain: MPRVKAAQAGRQSSAKRHLAEQFAVGEIITDMAKKEWKVGLPIGQGGFGCIYLADMNSSESVGSDAPCVVKVEPSDNGPLFTELKFYQRAAKPEQIQKWIRTRKLKYLGVPKYWGSGLHDKNGKSYRFMIMDRFGSDLQKIYEANAKRFSRKTVLQLSLRILDILEYIHEHEYVHGDIKASNLLLNYKNPDQVYLVDYGLAYRYCPEGVHKEYKEDPKRCHDGTIEFTSIDAHNGVAPSRRGDLEILGYCMIQWLTGHLPWEDNLKDPKYVRDSKIRYRENIASLMDKCFPEKNKPGEIAKYMETVKLLDYTEKPLYENLRDILLQGLKAIGSKDDGKLDLSVVENGGLKAKTITKKRKKEIEESKEPGVEDTEWSNTQTEEAIQTRSRTRKRVQK

Variants of: B1
Details: with plk3_human PLK3, Q9H4B4
Sequence of plk3_human PLK3, Q9H4B4 (Q9H4B4 whole entry, looked up): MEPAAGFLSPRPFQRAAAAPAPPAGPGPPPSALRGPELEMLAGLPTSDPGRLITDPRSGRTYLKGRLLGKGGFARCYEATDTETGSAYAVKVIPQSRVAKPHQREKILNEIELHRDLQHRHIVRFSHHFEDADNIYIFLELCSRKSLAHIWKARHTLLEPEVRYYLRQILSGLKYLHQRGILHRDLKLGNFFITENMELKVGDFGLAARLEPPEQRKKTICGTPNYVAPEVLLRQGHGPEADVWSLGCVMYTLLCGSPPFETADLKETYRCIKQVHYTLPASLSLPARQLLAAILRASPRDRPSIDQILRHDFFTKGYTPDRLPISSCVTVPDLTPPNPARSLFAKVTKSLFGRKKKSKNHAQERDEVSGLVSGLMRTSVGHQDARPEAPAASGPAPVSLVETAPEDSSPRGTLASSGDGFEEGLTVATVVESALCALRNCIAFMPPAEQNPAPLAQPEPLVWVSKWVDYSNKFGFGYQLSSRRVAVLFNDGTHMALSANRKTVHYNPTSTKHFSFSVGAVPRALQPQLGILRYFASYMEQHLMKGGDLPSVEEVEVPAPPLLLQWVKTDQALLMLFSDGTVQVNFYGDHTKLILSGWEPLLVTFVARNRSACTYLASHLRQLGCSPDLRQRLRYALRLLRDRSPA

effect of a mutation on the interaction	Variant
disrupting interaction	MPRVKAAQAGRQSSAKRHLAEQFAVGEIITDMAKKEWKVGLPIGQGGFGCIYLADMNSSESVGSDAPCVVKVEPSDNGPLFTELKFYQRAAKPEQIQKWIRTRKLKYLGVPKYWGSGLHDKNGKSYRFMIMDRFGSDLQKIYEANAKRFSRKTVLQLSLRILDILEYIHEHEYVHGDIKASNLLLNYKNPDQVYLVDYGLAYRYCPEGVHKEYKEDPKRCHDGTIEFTSIDAHNGVAPSRRGDLEILGYCMIQWLTGHLPWEDNLKDPKYVRDSKIRYRENIASLMDKCFPEKNKPGEIAKYMETVKLLDYTEKPLYENLRDILLQGLKAIGSKDDGKLDLAVVENGGLKAKTITKKRKKEIEESKEPGVEDTEWSNTQTEEAIQTRSRTRKRVQK [S342A]

Reference: IntAct's records for PubMed 19103756
